Test results taken from the supplement of paper PMC7877785.
± gives the uncertainty stated by the source.

Assay: self-splicing fitness, log relative to wild type (ln ratio); higher = more splicing; Tetrahymena group I intron in knt gene, E. coli kanamycin selection, DiMSum; sequences stand for … in CUCUCU…GGAGGGAAAAGUUAUCAGGCAUGCACCUGGUAGCUAGUCUUUAAACCAAUAGAUUGCAUCGGUUUAAAAGGCAAGACCGUCAAAUUGCGGGAAAGGGGUCAACAGCCGUUCAGUACCAAGUCUCAGGGGAAACUUUGAGAUGGCCUUGCAAAGGGUAUGGUAAUAAGCUGACGGACAUGGUCCUAACCACGCAGCCAAGUCCUAAGUCAACAGAUCUUCUGUUGAUAUGGAUGCAGUUCACAGACUAAAUGUCGGUCGGGGAAGAUGUAUUCUUCUCAUAAGAUAUAGUCGGACCUCUCCUUAAUGGGAGCUAGCGGAUGAAGUGAUGCAACACUGGAGCCGCUGGGAACUAAUUUGUAUGCGAAAGUAUAUUGAUUAGUUUUGGAGUACUCGUGGUCG
Outline: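 The eight P1ex-region nucleotides of an intron in the knt kanamycin-resistance gene on pET-22b(+) were all randomised and the library put into E. coli BL21(DE3). Six replicate transformations were grown overnight at 37°C or 30°C on LB agar with or without 25 μg/mL kanamycin, together with 100 μg/mL carbenicillin, 50 μM IPTG and 0.2% rhamnose. Colonies were pooled and amplicon-sequenced on an Illumina HiSeq 2500. Fitness from DiMSum is the error-weighted combination of wild-type-normalised replicate fold changes, kanamycin over none.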

Sequence	self-splicing fitness (ln) (30 °C)	self-splicing fitness (ln) (37 °C)
ACAAAGCAAUAUUACGAGCA	-1.56 ± 0.14	-0.49 ± 0.12
ACAAAGCAAUAUUACGAUGA	-0.411 ± 0.048	-0.201 ± 0.058
ACAAAGCAAUAUUACGAUUC	-1.92 ± 0.085	-0.67 ± 0.1
ACAAAGCAAUAUUACGCCAC	-3.01 ± 0.38	
ACAAAGCAAUAUUACGCCUU	-2.01 ± 0.075	-0.625 ± 0.087
ACAAAGCAAUAUUACGCGAA	-2.41 ± 0.096	-1.13 ± 0.092
ACAAAGCAAUAUUACGCGCG	-1.11 ± 0.078	-0.453 ± 0.099
ACAAAGCAAUAUUACGGAGG	-2.23 ± 0.078	-2.17 ± 0.11
ACAAAGCAAUAUUACGUAUG	-3.01 ± 0.12	-2.13 ± 0.15
ACAAAGCAAUAUUACGUCAC	-4.13 ± 0.18	-2.53 ± 0.16
ACAAAGCAAUAUUACGUCGC	-2.42 ± 0.11	-2.23 ± 0.16
ACAAAGCAAUAUUACGUCGG	-2.14 ± 0.11	-0.989 ± 0.12
ACAAAGCAAUAUUACGUCUA	-2.1 ± 0.083	-0.824 ± 0.086
ACAAAGCAAUAUUACGUGUU	-3.59 ± 0.17	-2.61 ± 0.16
ACAAAGCAAUAUUACGUUAC	-4.4 ± 0.22	-2.42 ± 0.22
ACACAGCAAUAUUACGACAC	-1.35 ± 0.081	0.0205 ± 0.11
ACACAGCAAUAUUACGACCC	-0.35 ± 0.14	-0.0588 ± 0.2
ACACAGCAAUAUUACGAGAU	-3.79 ± 0.16	-0.784 ± 0.11
ACACAGCAAUAUUACGAGGA	-2.42 ± 0.2	-1.66 ± 0.18
ACACAGCAAUAUUACGAUAG	-2.96 ± 0.074	-1.62 ± 0.069
ACACAGCAAUAUUACGAUUA	-1.66 ± 0.087	-0.929 ± 0.07

Sequence	self-splicing fitness (ln) (30 °C)	self-splicing fitness (ln) (37 °C)
ACACAGCAAUAUUACGCAAU	-3.32 ± 0.15	-1.94 ± 0.15
ACACAGCAAUAUUACGCAGA	-2.48 ± 0.16	-1.75 ± 0.12
ACACAGCAAUAUUACGCCGU	-2.08 ± 0.13	-1.13 ± 0.18
ACACAGCAAUAUUACGCCUC	-2.92 ± 0.18	-1.73 ± 0.2
ACACAGCAAUAUUACGCGUA	-1.89 ± 0.078	-1.2 ± 0.074
ACACAGCAAUAUUACGCGUC	-3.69 ± 0.11	-3.32 ± 0.15
ACACAGCAAUAUUACGCUAA	-2.03 ± 0.1	-1.19 ± 0.1
ACACAGCAAUAUUACGCUGG	-1.21 ± 0.063	-1.33 ± 0.091
ACACAGCAAUAUUACGCUGU	-3.38 ± 0.14	-3 ± 0.21
ACACAGCAAUAUUACGGCAA	-1.49 ± 0.077	-0.943 ± 0.081
ACACAGCAAUAUUACGGCAG	-1.29 ± 0.067	-0.371 ± 0.082
ACACAGCAAUAUUACGGCAU	-1.12 ± 0.049	0.227 ± 0.062
ACACAGCAAUAUUACGGCCC	-1.48 ± 0.13	0.924 ± 0.21
ACACAGCAAUAUUACGGCUU	-0.496 ± 0.04	-0.0695 ± 0.057
ACACAGCAAUAUUACGGGUU	-2.86 ± 0.077	-1.85 ± 0.082
ACACAGCAAUAUUACGGUAC	-4.03 ± 0.23	-2.03 ± 0.14
ACACAGCAAUAUUACGGUGC	-3.91 ± 0.16	-2.61 ± 0.14
ACACAGCAAUAUUACGGUUG	-1.37 ± 0.066	-1.31 ± 0.11
ACACAGCAAUAUUACGUACU	-0.335 ± 0.05	0.175 ± 0.065
ACACAGCAAUAUUACGUCAU	-2.34 ± 0.072	-2.33 ± 0.094
ACACAGCAAUAUUACGUCCG	-1.3 ± 0.079	0.213 ± 0.11
